Reference: the supplement of paper PMC9112550, “Optimization of the antimicrobial peptide Bac7 by deep mutational scanning” (BMC Biology, 2022)

System: Escherichia coli TOP10
Test: shrunken log2 fold change of peptide-encoding DNA abundance (4.5 h post-induction vs induction); higher = less antimicrobial activity (less host growth inhibition)
Conditions: time post-induction: 4.5 h; library: site-saturation at positions 5, 18, 19, 20
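Further: peptides expressed intracellularly from a pBAD plasmid library in pooled LB shake-flask culture, induced with 0.3% L-arabinose, DNA abundance read by NGS, three biological replicates, DESeq2 with apeglm shrinkage.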

Sequence | shrunken log2 fold change
RRIRLRPPRLPRPRPRPPDRPRP | 0.467
RRIRQRPPRLPRPRPRPWQHPRP | -0.0358
RRIRGRPPRLPRPRPRPNSKPRP | 0.0993
RRIRQRPPRLPRPRPRPPNQPRP | 0.448
RRIRWRPPRLPRPRPRPNRHPRP | 0.0506
RRIRFRPPRLPRPRPRPYMMPRP | -0.34
RRIRSRPPRLPRPRPRPDVLPRP | -0.104
RRIRFRPPRLPRPRPRPQPIPRP | 0.222
RRIRHRPPRLPRPRPRPWMWPRP | -0.0064
RRIRARPPRLPRPRPRPNGNPRP | -0.191
RRIRRRPPRLPRPRPRPVDVPRP | 1.09
RRIRDRPPRLPRPRPRPTVDPRP | 0.195
RRIRIRPPRLPRPRPRPIWNPRP | -0.263
RRIRERPPRLPRPRPRPIGPPRP | -0.138
RRIRHRPPRLPRPRPRPRCFPRP | -0.143
RRIRFRPPRLPRPRPRPSFPPRP | -0.38
RRIRLRPPRLPRPRPRPEPKPRP | 0.238
RRIRERPPRLPRPRPRPGIWPRP | 0.139
RRIRMRPPRLPRPRPRPILCPRP | 0.0427
RRIRDRPPRLPRPRPRPVGTPRP | -0.0472
RRIRKRPPRLPRPRPRPYHPPRP | 0.0155
RRIRARPPRLPRPRPRPPSMPRP | 0.425
RRIRIRPPRLPRPRPRPVKWPRP | -0.0064
RRIRKRPPRLPRPRPRPGCFPRP | 0.421
RRIRPRPPRLPRPRPRPWFMPRP | -0.18

Sequence | shrunken log2 fold change
RRIRRRPPRLPRPRPRPGQIPRP | 0.0802
RRIRWRPPRLPRPRPRPFRYPRP | -0.501
RRIRSRPPRLPRPRPRPYFTPRP | 1.09
RRIRCRPPRLPRPRPRPTTRPRP | 0.176
RRIRLRPPRLPRPRPRPFQVPRP | -0.0146
RRIRRRPPRLPRPRPRPGRTPRP | 0.315
RRIRGRPPRLPRPRPRPFVMPRP | -0.0182
RRIRARPPRLPRPRPRPSNCPRP | -0.285
RRIRTRPPRLPRPRPRPILVPRP | -0.0468
RRIRVRPPRLPRPRPRPGEQPRP | -0.0154
RRIRFRPPRLPRPRPRPRYFPRP | 0.0373
RRIRNRPPRLPRPRPRPDVDPRP | 0.0446
RRIRNRPPRLPRPRPRPIGKPRP | -0.0902
RRIRKRPPRLPRPRPRPQHFPRP | 0.0698
RRIRGRPPRLPRPRPRPFAVPRP | 0.396
RRIRVRPPRLPRPRPRPFWGPRP | -0.0605
RRIRARPPRLPRPRPRPTKIPRP | 0.272
RRIRSRPPRLPRPRPRPCSQPRP | -0.214
RRIRYRPPRLPRPRPRPMKFPRP | -0.0276
RRIRERPPRLPRPRPRPVFMPRP | -0.356
RRIRLRPPRLPRPRPRPCFHPRP | -0.49
RRIRHRPPRLPRPRPRPAIRPRP | -0.000964
RRIRWRPPRLPRPRPRPKLTPRP | 0.475
RRIRGRPPRLPRPRPRPMWEPRP | 1.3
RRIRRRPPRLPRPRPRPYHAPRP | -0.0669

Sequence | shrunken log2 fold change
RRIRLRPPRLPRPRPRPAYFPRP | -0.364
RRIRHRPPRLPRPRPRPIMMPRP | 0.013
RRIRQRPPRLPRPRPRPSEWPRP | -0.0519
RRIRYRPPRLPRPRPRPKEQPRP | 0.00489
RRIRTRPPRLPRPRPRPWTEPRP | 0.00497
RRIRPRPPRLPRPRPRPCLHPRP | -0.248
RRIRDRPPRLPRPRPRPHQMPRP | 0.00713
RRIRHRPPRLPRPRPRPIAEPRP | -0.103
RRIRTRPPRLPRPRPRPCYFPRP | -0.616
RRIRFRPPRLPRPRPRPAWLPRP | 0.231
RRIRVRPPRLPRPRPRPRDPPRP | 0.617
RRIRKRPPRLPRPRPRPHNHPRP | -0.533
RRIRFRPPRLPRPRPRPTQRPRP | 0.98
RRIRRRPPRLPRPRPRPLRGPRP | 0.732
RRIRVRPPRLPRPRPRPVHIPRP | -0.174
RRIRIRPPRLPRPRPRPCMKPRP | -1.01
RRIRARPPRLPRPRPRPGRLPRP | 0.895
RRIRKRPPRLPRPRPRPYWLPRP | -0.229
RRIRSRPPRLPRPRPRPVQIPRP | 0.111
RRIRDRPPRLPRPRPRPHREPRP | 0.0506
RRIRYRPPRLPRPRPRPTAEPRP | 0.0226
RRIRHRPPRLPRPRPRPPWVPRP | -0.101
RRIRWRPPRLPRPRPRPHYAPRP | -0.0597
RRIRRRPPRLPRPRPRPCRAPRP | 0.182
RRIRARPPRLPRPRPRPRWMPRP | 0.451

Sequence | shrunken log2 fold change
RRIRPRPPRLPRPRPRPCSKPRP | 0.0051
RRIRKRPPRLPRPRPRPVHNPRP | -0.0446
RRIRMRPPRLPRPRPRPWSSPRP | -0.145
RRIRRRPPRLPRPRPRPQLDPRP | -0.0387
RRIRRRPPRLPRPRPRPAGCPRP | 0.437
RRIRMRPPRLPRPRPRPPVEPRP | 0.664
RRIRERPPRLPRPRPRPVTSPRP | -0.23
RRIRCRPPRLPRPRPRPTMAPRP | -0.0611
RRIRSRPPRLPRPRPRPYDPPRP | -1
RRIRLRPPRLPRPRPRPQTTPRP | -0.152
RRIRWRPPRLPRPRPRPFKQPRP | -0.104
RRIRARPPRLPRPRPRPTSRPRP | 0.119
RRIRGRPPRLPRPRPRPVHLPRP | 0.034
RRIRLRPPRLPRPRPRPETVPRP | 0.0594
RRIRERPPRLPRPRPRPWRHPRP | -0.0998
RRIRARPPRLPRPRPRPWMDPRP | 0.14
RRIRYRPPRLPRPRPRPSVAPRP | -0.183
RRIRNRPPRLPRPRPRPHGPPRP | 0.115
RRIRGRPPRLPRPRPRPRPTPRP | 0.906
RRIRMRPPRLPRPRPRPPTYPRP | 0.306
RRIRTRPPRLPRPRPRPINIPRP | -0.208
RRIRERPPRLPRPRPRPTVKPRP | -0.218
RRIRIRPPRLPRPRPRPYCIPRP | -0.224
RRIRWRPPRLPRPRPRPEITPRP | 0.437
RRIRDRPPRLPRPRPRPKVAPRP | 0.458

Sequence | shrunken log2 fold change
RRIRTRPPRLPRPRPRPNPFPRP | -0.216
RRIRPRPPRLPRPRPRPIAVPRP | -0.0448
RRIRNRPPRLPRPRPRPMKPPRP | -0.00018
RRIRMRPPRLPRPRPRPPWQPRP | 0.763
RRIRYRPPRLPRPRPRPHRFPRP | 0.0207
RRIRIRPPRLPRPRPRPQQYPRP | -0.808
RRIRQRPPRLPRPRPRPDPHPRP | -0.0406
RRIRKRPPRLPRPRPRPTPYPRP | 0.235
RRIRDRPPRLPRPRPRPGFWPRP | 0.493
RRIRTRPPRLPRPRPRPCKAPRP | -0.00146
RRIRKRPPRLPRPRPRPWMFPRP | -0.000428
RRIRPRPPRLPRPRPRPDDEPRP | 0.331
RRIRKRPPRLPRPRPRPWKRPRP | 0.024
RRIRVRPPRLPRPRPRPPQCPRP | -0.143
RRIRGRPPRLPRPRPRPTSPPRP | 0.491
RRIRQRPPRLPRPRPRPLPGPRP | 0.0661
RRIRKRPPRLPRPRPRPGCNPRP | 0.754
RRIRYRPPRLPRPRPRPVITPRP | -0.241
RRIRPRPPRLPRPRPRPGLLPRP | 0.217
RRIRGRPPRLPRPRPRPGHFPRP | -0.0383
RRIRARPPRLPRPRPRPENTPRP | 0.397
RRIRKRPPRLPRPRPRPPMNPRP | 0.123
RRIRTRPPRLPRPRPRPKFVPRP | 0.368
RRIRERPPRLPRPRPRPIWMPRP | 0.0239
RRIRTRPPRLPRPRPRPEQQPRP | 0.436
